B1: glmS ribozyme (parent)
chain: AUAAAAGCGCCAGAACUACAGAAAUGUAGUUGACGAGGAGGAGGUUUAUCGAAUUUUCGGCGGAUGCCUCCAAA

What all share (conditions): with glucosamine-6-phosphate
Variants of B1 are the subject of series [1]. Description: self-cleavage kobs at 40 uM GlcN6P; higher = faster cleavage; RNA array. In short, it runs like this:
(§1)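 kobs was derived by fitting per-tile medians to one- or two-exponential decays after normalising signals to baseline and to non-cleaving reference variants. Those signals came from barcoded ribozyme variants transcribed in situ by E. coli RNA polymerase on sequenced MiSeq chips, followed through a hybridised Cy3 probe at 37 °C and imaged over ~14 h. Glucosamine-6-phosphate (40 μM to 10 mM) in HEPES/KCl/Mg(OAc)2 buffer was flowed in. Weighted Michaelis–Menten fits across concentrations then gave kcat and KM.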

Series [2] covers variants of B1. As to the kind of experiment: self-cleavage kobs at 640 uM GlcN6P; higher = faster cleavage; RNA array. An outline of the steps: as §1
The variants in series [3] derive from B1. Description: self-cleavage kobs at 2500 uM GlcN6P; higher = faster cleavage; RNA array. In short, it runs like this: as §1
In series [4] the parent is B1. As to the kind of experiment: self-cleavage kobs at 10000 uM GlcN6P; higher = faster cleavage; RNA array. An outline of the steps: as §1
The variants in series [5] derive from B1. Description: self-cleavage kobs at 160 uM GlcN6P; higher = faster cleavage; RNA array. In short, it runs like this:
as §1

± gives the standard error. This sample holds only a part of the variants without activity. Bounds are passed on as bounds.

Regarding U45G G62A, in the series with glucosamine-6-phosphate [1], the “self-cleavage kobs at 40 uM GlcN6P” value is less than 1e-05 s⁻¹. For the same variant, the “self-cleavage kobs at 640 uM GlcN6P” value with glucosamine-6-phosphate [2] was less than 1e-05 s⁻¹. Further, in the series with glucosamine-6-phosphate [3], the “self-cleavage kobs at 2500 uM GlcN6P” value is less than 1e-05 s⁻¹. The “self-cleavage kobs at 10000 uM GlcN6P” value with glucosamine-6-phosphate [4] was less than 1e-05 s⁻¹.
As to U54G A64C C67A C70U, the “self-cleavage kobs at 40 uM GlcN6P” value in the series with glucosamine-6-phosphate [1] was 0.000151 ± 5.2e-05 s⁻¹. Also, in the series with glucosamine-6-phosphate [5], the “self-cleavage kobs at 160 uM GlcN6P” value worked out at 0.000348 ± 0.00013 s⁻¹. In addition, the “self-cleavage kobs at 640 uM GlcN6P” value in the series with glucosamine-6-phosphate [2] is 0.000556 ± 0.00017 s⁻¹. Also, the “self-cleavage kobs at 2500 uM GlcN6P” value with glucosamine-6-phosphate [3] is 0.000241 ± 0.0001 s⁻¹. In addition, the “self-cleavage kobs at 10000 uM GlcN6P” value with glucosamine-6-phosphate [4] came out at 4.58e-05 ± 1.8e-05 s⁻¹.
As to A42C A52U C61U, in the series with glucosamine-6-phosphate [1], the “self-cleavage kobs at 40 uM GlcN6P” value is less than 1e-05 s⁻¹. Further, the “self-cleavage kobs at 640 uM GlcN6P” value with glucosamine-6-phosphate [2] is less than 1e-05 s⁻¹.
Take G7U G44C: the “self-cleavage kobs at 40 uM GlcN6P” value with glucosamine-6-phosphate [1] is less than 1e-05 s⁻¹. Further, in the series with glucosamine-6-phosphate [5], the “self-cleavage kobs at 160 uM GlcN6P” value is less than 1e-05 s⁻¹. Further, in the series with glucosamine-6-phosphate [2], the “self-cleavage kobs at 640 uM GlcN6P” value was less than 1e-05 s⁻¹. The “self-cleavage kobs at 2500 uM GlcN6P” value with glucosamine-6-phosphate [3] is less than 1e-05 s⁻¹. Besides, in the series with glucosamine-6-phosphate [4], the “self-cleavage kobs at 10000 uM GlcN6P” value is less than 1e-05 s⁻¹.
For G37U G43C, in the series with glucosamine-6-phosphate [1], the “self-cleavage kobs at 40 uM GlcN6P” value is less than 1e-05 s⁻¹. Besides, the “self-cleavage kobs at 160 uM GlcN6P” value with glucosamine-6-phosphate [5] was less than 1e-05 s⁻¹. In the series with glucosamine-6-phosphate [3], the “self-cleavage kobs at 2500 uM GlcN6P” value is less than 1e-05 s⁻¹. In addition, the “self-cleavage kobs at 10000 uM GlcN6P” value with glucosamine-6-phosphate [4] was less than 1e-05 s⁻¹.
As for G37U G43U, in the series with glucosamine-6-phosphate [1], the “self-cleavage kobs at 40 uM GlcN6P” value is less than 1e-05 s⁻¹. In addition, in the series with glucosamine-6-phosphate [2], the “self-cleavage kobs at 640 uM GlcN6P” value is less than 1e-05 s⁻¹. In addition, the “self-cleavage kobs at 10000 uM GlcN6P” value with glucosamine-6-phosphate [4] is less than 1e-05 s⁻¹.
As to A12U A14G G29A, the “self-cleavage kobs at 40 uM GlcN6P” value with glucosamine-6-phosphate [1] was determined as 0.00101 ± 0.00019 s⁻¹. In the series with glucosamine-6-phosphate [4], the “self-cleavage kobs at 10000 uM GlcN6P” value came to 0.00831 ± 0.0018 s⁻¹.
For G7C A12U G38U G40C U49G U56G, the “self-cleavage kobs at 40 uM GlcN6P” value with glucosamine-6-phosphate [1] is less than 1e-05 s⁻¹.
Same read-out and setting: next, G29A A39U U69A: less than 1e-05 s⁻¹.
Turning to A6G G9A G44A C71A, the “self-cleavage kobs at 40 uM GlcN6P” value with glucosamine-6-phosphate [1] was less than 1e-05 s⁻¹. Further, the “self-cleavage kobs at 2500 uM GlcN6P” value with glucosamine-6-phosphate [3] was less than 1e-05 s⁻¹. In the series with glucosamine-6-phosphate [4], the “self-cleavage kobs at 10000 uM GlcN6P” value is less than 1e-05 s⁻¹.
Regarding A6G U54G U57C, the “self-cleavage kobs at 40 uM GlcN6P” value with glucosamine-6-phosphate [1] was less than 1e-05 s⁻¹. In the series with glucosamine-6-phosphate [4], the “self-cleavage kobs at 10000 uM GlcN6P” value was less than 1e-05 s⁻¹.
Consider G32C A36U, for which, in the series with glucosamine-6-phosphate [1], the “self-cleavage kobs at 40 uM GlcN6P” value was less than 1e-05 s⁻¹. Moreover, in the series with glucosamine-6-phosphate [5], the “self-cleavage kobs at 160 uM GlcN6P” value is less than 1e-05 s⁻¹. The “self-cleavage kobs at 640 uM GlcN6P” value with glucosamine-6-phosphate [2] is less than 1e-05 s⁻¹. In the series with glucosamine-6-phosphate [3], the “self-cleavage kobs at 2500 uM GlcN6P” value was less than 1e-05 s⁻¹.
For the variant A12C G38C G44A A64G, the “self-cleavage kobs at 40 uM GlcN6P” value with glucosamine-6-phosphate [1] is less than 1e-05 s⁻¹. Besides, the “self-cleavage kobs at 2500 uM GlcN6P” value in the series with glucosamine-6-phosphate [3] is less than 1e-05 s⁻¹.
Turning to G35C G59U C61U, in the series with glucosamine-6-phosphate [1], the “self-cleavage kobs at 40 uM GlcN6P” value is less than 1e-05 s⁻¹. Moreover, the “self-cleavage kobs at 160 uM GlcN6P” value in the series with glucosamine-6-phosphate [5] was less than 1e-05 s⁻¹. In addition, in the series with glucosamine-6-phosphate [2], the “self-cleavage kobs at 640 uM GlcN6P” value is less than 1e-05 s⁻¹. In addition, the “self-cleavage kobs at 2500 uM GlcN6P” value in the series with glucosamine-6-phosphate [3] is less than 1e-05 s⁻¹. Besides, in the series with glucosamine-6-phosphate [4], the “self-cleavage kobs at 10000 uM GlcN6P” value is less than 1e-05 s⁻¹.
Take C8U C50U C58G C61U C67U C68G: the “self-cleavage kobs at 40 uM GlcN6P” value with glucosamine-6-phosphate [1] worked out at 0.000528 ± 0.0001 s⁻¹. For the same variant, the “self-cleavage kobs at 10000 uM GlcN6P” value with glucosamine-6-phosphate [4] came to 0.00105 ± 0.00018 s⁻¹.
Regarding A36G A64G U69G, the “self-cleavage kobs at 40 uM GlcN6P” value in the series with glucosamine-6-phosphate [1] was less than 1e-05 s⁻¹.
For the variant G38U U46G G60C, the “self-cleavage kobs at 40 uM GlcN6P” value with glucosamine-6-phosphate [1] was less than 1e-05 s⁻¹. Besides, in the series with glucosamine-6-phosphate [5], the “self-cleavage kobs at 160 uM GlcN6P” value was less than 1e-05 s⁻¹. In addition, the “self-cleavage kobs at 640 uM GlcN6P” value with glucosamine-6-phosphate [2] is less than 1e-05 s⁻¹. Also, the “self-cleavage kobs at 2500 uM GlcN6P” value in the series with glucosamine-6-phosphate [3] was less than 1e-05 s⁻¹.
G44C U49G: in the series with glucosamine-6-phosphate [1], the “self-cleavage kobs at 40 uM GlcN6P” value was less than 1e-05 s⁻¹. In the series with glucosamine-6-phosphate [3], the “self-cleavage kobs at 2500 uM GlcN6P” value is less than 1e-05 s⁻¹. The “self-cleavage kobs at 10000 uM GlcN6P” value with glucosamine-6-phosphate [4] is less than 1e-05 s⁻¹.
With G60C A64U, the “self-cleavage kobs at 40 uM GlcN6P” value with glucosamine-6-phosphate [1] was less than 1e-05 s⁻¹. Further, the “self-cleavage kobs at 160 uM GlcN6P” value in the series with glucosamine-6-phosphate [5] was less than 1e-05 s⁻¹. Also, in the series with glucosamine-6-phosphate [2], the “self-cleavage kobs at 640 uM GlcN6P” value was less than 1e-05 s⁻¹. The “self-cleavage kobs at 2500 uM GlcN6P” value in the series with glucosamine-6-phosphate [3] is less than 1e-05 s⁻¹. Moreover, the “self-cleavage kobs at 10000 uM GlcN6P” value with glucosamine-6-phosphate [4] is less than 1e-05 s⁻¹.
For C11A C34U, in the series with glucosamine-6-phosphate [1], the “self-cleavage kobs at 40 uM GlcN6P” value was less than 1e-05 s⁻¹. Besides, the “self-cleavage kobs at 640 uM GlcN6P” value with glucosamine-6-phosphate [2] is less than 1e-05 s⁻¹.
For U54G G62U, the “self-cleavage kobs at 40 uM GlcN6P” value with glucosamine-6-phosphate [1] is less than 1e-05 s⁻¹. In addition, in the series with glucosamine-6-phosphate [5], the “self-cleavage kobs at 160 uM GlcN6P” value is less than 1e-05 s⁻¹. Moreover, the “self-cleavage kobs at 640 uM GlcN6P” value in the series with glucosamine-6-phosphate [2] was less than 1e-05 s⁻¹. The “self-cleavage kobs at 2500 uM GlcN6P” value with glucosamine-6-phosphate [3] is less than 1e-05 s⁻¹. Also, the “self-cleavage kobs at 10000 uM GlcN6P” value with glucosamine-6-phosphate [4] is less than 1e-05 s⁻¹.

The values above are taken from the supplement of paper PMC7125110.
